± gives the standard deviation of the averaged measurements.
System: ATP
Test: switch fluorescence ratio, 500 uM ATP over buffer (Cy3 cluster intensity, sum of 5 cycles each) (fold (ratio)); higher = stronger signal-on switching upon ATP binding; sequences stand for … in TCGTCGGCAGCGTCAGATGTGTATAAGAGACAGTTTTTTTTTTTTTTTTTTTTTTTTT…TC
Conditions: aptamer strand: ATP DNA aptamer (quencher-CACCTGGGGGAGTATTGCGGAGGAAGG + anchor), 100 nM annealed; ATP concentration: 500 uM
Method in brief: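 The quencher-labelled ATP aptamer, at 100 nM, was annealed to Cy3-labelled switching-strand clusters on a modified Illumina MiSeq flow-cell. The clusters were imaged in selection buffer, then after 15 min with 500 uM ATP at 22 °C, and this buffer/ATP cycle ran five times with NaOH stripping and re-annealing between runs. Per-cluster fluorescence ratios, summed target-cycle over summed buffer-cycle Cy3 intensity, were averaged per switch-domain sequence. Clusters outside 100-1000 RFU were excluded.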
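Further: ATP exposure 15 min at 22 °C before imaging.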

Row | Sequence | switch fluorescence ratio
1 | AAGTGCCTGC | 1.015 ± 0.0056
2 | CTAATCGCTG | 1.05 ± 0.034
3 | TTACTGATCC | 1.04 ± 0.019
4 | GCCCATGGGT | 1.07 ± 0.12
5 | TAAGAACGAT | 0.987 ± 0.053
6 | CTGTACGGGG | 1.02 ± 0.054
7 | AGAGAACCCT | 1.08 ± 0.048
8 | CAAATCCTAT | 1.01 ± 0.013
9 | GGGGCGGTGT | 1.32 ± 0.54
10 | AATACGTTAG | 1.01 ± 0.027
11 | AGAGGCTGAT | 0.983 ± 0.014
12 | CCCGGGGGTT | 1.14 ± 0.13
13 | TTTGTGCGCA | 1.07 ± 0.08
14 | TACGGGAATT | 1.04 ± 0.023
15 | GCAAAAATCT | 1.01 ± 0.046
16 | AGACTGTTGA | 1.04 ± 0.019
17 | GAGTCCATGG | 0.985 ± 0.013
18 | TATGGCTGTG | 1.02 ± 0.06
19 | ATGATGCTGG | 1.02 ± 0.077
20 | AGCATGGTTT | 1.02 ± 0.029
21 | CAGGTTGTGG | 0.992 ± 0.024
22 | AGGAGGGGGG | 1.01 ± 0.039
23 | GGGGAATCAG | 1.03 ± 0.017

Row | Sequence | switch fluorescence ratio
24 | ATGAGATAGT | 1.002 ± 0.0049
25 | CTGAACAGTA | 1.02 ± 0.033
26 | TAGATATGAG | 1.009 ± 0.0012
27 | TATAATAGCT | 1.02 ± 0.023
28 | AAGGTAATTT | 1.01 ± 0.03
29 | GAAGTTAGGT | 0.9981 ± 0.0087
30 | AATGGGAATG | 1.013 ± 0.0052
31 | GAGCCCAATG | 1.0092 ± 0.001
32 | TTCATCGGCT | 1.34 ± 0.51
33 | AGGGCGGCTT | 1 ± 0.032
34 | CCCATCCATC | 1.03 ± 0.029
35 | TATAAATGTG | 0.978 ± 0.027
36 | ACTCGGGGGG | 0.991 ± 0.023
37 | CGTGCCCTGC | 1.06 ± 0.028
38 | CTTGGGTCTG | 1 ± 0.066
39 | GAATGTTCAG | 1.02 ± 0.024
40 | TGGGGATTCT | 0.976 ± 0.0054
41 | GAGGGAGATT | 1.02 ± 0.05
42 | GGGGGGCAGG | 1.03 ± 0.039
43 | GTCTATATGG | 0.997 ± 0.032
44 | GCGAAAGGGT | 1 ± 0.015
45 | TAGATGCTTT | 0.96461 ± 0.00038
46 | GCATGGTAGC | 0.994 ± 0.037

Row | Sequence | switch fluorescence ratio
47 | AATGGGGGGT | 1.02 ± 0.053
48 | CAAATTTGTC | 0.994 ± 0.02
49 | GGCGGTTTGG | 1.002 ± 0.0058
50 | TAGGGGAGAC | 1.06 ± 0.047
51 | TTGTTCGCCT | 1.02 ± 0.011
52 | TTTATTTATA | 1.01 ± 0.025
53 | GCTCTAAGGG | 1.01 ± 0.028
54 | AATCGAGTGG | 0.969 ± 0.06
55 | TATTAATGCT | 1.028 ± 0.0052
56 | TATCGACGTT | 0.97 ± 0.038
57 | GGTTTATGTT | 1 ± 0.019
58 | GTGGTTAGCA | 0.9712 ± 0.0065
59 | CACCGCGTCG | 1.21 ± 0.017
60 | TTTTCCGCGG | 1.062 ± 0.0077
61 | GAGGGGAGTG | 1.03 ± 0.064
62 | GACTGGGGAG | 0.991 ± 0.056
63 | GGTGGTTTTT | 1.03 ± 0.099
64 | GGAGGCAGGG | 0.9965 ± 0.0096
65 | GTGAAAACCG | 1.03 ± 0.062
66 | GTGGATTCAC | 0.98 ± 0.0096
67 | TTGTTTTTGA | 1.05 ± 0.067
68 | CCACAGAGGG | 1.21 ± 0.17
69 | CGTTTTTTTA | 0.992 ± 0.018

Row | Sequence | switch fluorescence ratio
70 | AAACTAGCGC | 0.981 ± 0.015
71 | AAATTCGTTA | 0.983 ± 0.048
72 | CATTGGCCGG | 1.095 ± 0.0025
73 | GCGTTTTAAC | 1.019 ± 0.0093
74 | GGTATGATGG | 0.991 ± 0.01
75 | CGGGTATGTA | 1 ± 0.0022
76 | CGGGCAGATG | 0.983 ± 0.028
77 | TCCTGGATGG | 0.98 ± 0.022
78 | AATTTGGGTT | 1.04 ± 0.053
79 | TGTTTTAGCT | 0.973 ± 0.021
80 | TATTTAGGAG | 0.999 ± 0.021
81 | GGGAGCTTTT | 0.999 ± 0.023
82 | GTAATGGGCA | 1.03 ± 0.054
83 | GTGGACAACG | 0.9924 ± 0.0099
84 | ACTGTTAGGT | 1.036 ± 0.0055
85 | GAGGGAAGTT | 1.04 ± 0.037
86 | TTCGTCAGGA | 0.978 ± 0.036
87 | AGTTGTATT | 0.967 ± 0.022
88 | GTTTTTATTT | 0.976 ± 0.031
89 | CGTAGTTCGA | 1.02 ± 0.018
90 | GCGGTTCGAA | 0.997 ± 0.084
91 | GGGAAGCCTT | 1.028 ± 0.0069
92 | GATTAATGGG | 0.995 ± 0.023

Row | Sequence | switch fluorescence ratio
93 | AGTTATGTAG | 1.01 ± 0.052
94 | TCCCTTTGGG | 0.971 ± 0.038
95 | TTTGTAGTGT | 0.999 ± 0.026
96 | TAGAGTCGTG | 0.981 ± 0.027
97 | CTCGGCGTCG | 1.03 ± 0.019
98 | ACCCGATCTT | 1 ± 0.053
99 | CGGTCTTACT | 1.02 ± 0.02
100 | AATTTCGGGT | 0.9877 ± 0.0096
101 | TTTGGCCGGA | 0.985 ± 0.036
102 | TATGGAATGT | 0.998 ± 0.0062
103 | TGGTTCAGTG | 0.993 ± 0.048
104 | CGCAAAATTT | 1.11 ± 0.11
105 | TTTGACAGTA | 1.07 ± 0.061
106 | GGTTACCGTG | 0.997 ± 0.033
107 | AATAAGAGAC | 1.01 ± 0.043
108 | ATAGTCAGAT | 0.969 ± 0.014
109 | TTTTTCCCCT | 0.992 ± 0.023
110 | GCGCATAGGG | 1.04 ± 0.044
111 | CTGATGGGGA | 0.961 ± 0.033
112 | GCGTTAGCTT | 0.982 ± 0.069
113 | CATTTCGTTT | 0.957 ± 0.014
114 | GGGGGACGGT | 1.02 ± 0.017
115 | TTTAAATAT | 1.03 ± 0.086

Row | Sequence | switch fluorescence ratio
116 | ATATGTAGGT | 0.998 ± 0.049
117 | ATTCATTCGG | 0.992 ± 0.026
118 | ACTGGGAGGC | 1 ± 0.096
119 | AGGTGTTCCG | 1.04 ± 0.084
120 | AACTGGGAGA | 0.98933 ± 0.0002
121 | ACCAATCCTG | 1 ± 0.013
122 | TTCGGGGATG | 0.991 ± 0.048
123 | AGTTAGGTGT | 1.04 ± 0.044
124 | TTAATTAAGT | 0.987 ± 0.04
125 | TTCGATATTT | 0.982 ± 0.017
126 | ATAGGGGGGC | 1.01 ± 0.074
127 | TCTAAGACGT | 0.957 ± 0.018
128 | CGGTTTATAT | 0.99 ± 0.013
129 | GCGGATGAGA | 1.056 ± 0.0096
130 | CATTGGTTGT | 0.927 ± 0.025
131 | AGCTTCATTC | 1.06 ± 0.057
132 | AGAGCCCTTA | 1.01 ± 0.014
133 | TTCTTATTGT | 0.975 ± 0.019
134 | AACCGTGTGT | 0.994 ± 0.013
135 | TTTACTAGAT | 1.05 ± 0.012
136 | GGAGCCGGGG | 1 ± 0.022
137 | ACAGGATTGG | 1.01 ± 0.017
138 | AAGATAACGG | 1.07 ± 0.048

Row | Sequence | switch fluorescence ratio
139 | CCTGGGCGGT | 1.32 ± 0.031
140 | CTCATATGGA | 1.01 ± 0.048
141 | CAGGGCGGGA | 0.936 ± 0.028
142 | GGATGAAAG | 0.99 ± 0.014
143 | CTTACATTGC | 1.05 ± 0.029
144 | TCAAACCGCA | 1.91 ± 0.16
145 | CGCGTTGTGG | 1.03 ± 0.012
146 | TCATTTTTCT | 0.98 ± 0.021
147 | AAAGGGTGTG | 1 ± 0.019
148 | ATGAGGGTCG | 0.993 ± 0.014
149 | ATGTTTGTAG | 0.979 ± 0.045
150 | TTTACTATAT | 1.04 ± 0.032
151 | TAATAGGCAG | 1.01 ± 0.029
152 | ATCAATGTTC | 1.07 ± 0.094
153 | AGGTTGAAAG | 0.974 ± 0.035
154 | GAGATTGGTG | 1 ± 0.031
155 | AAGGCAGGCG | 0.977 ± 0.096
156 | CTTGGCTCTT | 0.985 ± 0.01
157 | GTTAGTAGCT | 0.97 ± 0.013
